Data: US9993566B2, “SEZ6 modulators and methods of use” (AbbVie Stemcentrx LLC, priority 2013, dated 2018)

Tests used:
[1] = test system: LU124OXAHIp2 cells; assay: Oxaliplatin sensitivity, Cell Titer Glo dose response; assay type: cell-based, human; conditions: seven days in culture, oxaliplatin-resistant line
Excerpt: (§1) Cisplatin and its derivatives, including oxaliplatin are the chemotherapeutic standard of care for SCLC. An oxaliplatin-resistant SCLC PDX line was developed due to concerns that cisplatin may not be stable in tissue culture medium (Schuldes et al., 1997, PMID: 9128988). The oxaliplatin-resistant SCLC line was generated by isolating human cells from LU124p2, a SCLC PDX line that had been passaged subcutaneously twice through NOD.SCID mice. LU124p2 tumors were resected from mice after reaching 800-2,000 mm^3, dissociated into single cell suspensions using art-recognized enzymatic digestion techniques (see, for example, US2007/0292414), and depleted of murine cells. The cells were then washed and cultured in 5% oxygen and serum-free medium and immediately treated with 1 μM of oxaliplatin. After seven days of exposure to oxaliplatin, the cells were washed and allowed to recover for two weeks in standard serum-free media with fresh renewal of medium twice a week. After the recovery period, the cells were washed and re-plated into a new flask with 1 μM of oxaliplatin for seven more days, followed by a final wash and a two week recovery period. The resulting cell line was termed LU124OXAHIp2. Single cell suspensions were generated using Versene (Invitrogen). Some of the cells were injected into mice to propagate the LU124OXAHIp2 cell line, while other cells were cultured in vitro to test sensitivity to oxaliplatin.
(§2) Oxaliplatin sensitivity of LU124OXAHIp2 was tested as follows: LU124OXAHIp2 cells were plated onto 96-well plates and treated with a titration of oxaliplatin in serum-free medium as is standard in the art. After seven days in culture, cells were harvested using Cell Titer Glo® (Promega) as per the manufacturer's instructions and dose response curves were obtained. […] To determine whether the resistance was stable, LU124OXAHIp2 cells were passaged again through immunocompromised mice to yield the cell line called LU124OXAHIp3.

[2] = test system: LU124OXAHIp3 cells; assay: as above; assay type: cell-based, human; conditions: after further passage through mice without oxaliplatin
Excerpt: as §1, §2

[3] = test system: LU124p2 parental cell line; assay: as above; assay type: cell-based, human; conditions: seven days in culture
Excerpt: as §1, §2

[4] = test system: LU117 tumor; assay: SCLC NTX tumor volume in immunodeficient mice, humanized ADCs; assay type: in vivo, human; conditions: three injections of 1 mg/kg over seven days
Protocol: (§3) The ability of humanized anti-SEZ6 ADCs to reduce SCLC tumor volume was also tested. Anti-SEZ6 ADCs (hSC17.17, hSC17.24, hSC17.34 and hSC17.46), and the human IgG1 isotype control ADC (huIgG1) were administered to immunodeficient mice bearing various patient derived NTX tumors. Mice were given three injections of 1 mg/kg (indicated by the vertical lines in FIGS. 18C and 18D) over a period of seven days. Following treatment, tumor volumes and mouse weights were monitored until tumors exceeded 800 mm^3 or mice became sick. Complete and durable elimination of tumor mass was achieved by the administration of humanized anti-SEZ6 ADCs in four SCLC tumors.

[5] = test system: LU64 tumor; assay: as above; assay type: in vivo, human; conditions: three injections of 1 mg/kg over seven days
Protocol: as §3

[6] = test system: LU80 tumor; assay: as above; assay type: in vivo, human; conditions: three injections of 1 mg/kg over seven days
Protocol: as §3

[7] = test system: HEK293 cells overexpressing SEZ6; assay: In vitro cytotoxicity of ADC; assay type: cell-based, human
Protocol: The final ADC was analyzed for protein concentration (by measuring UV), aggregation (SEC), drug to antibody ratio (DAR) by reverse phase (RP) HPLC, presence of unconjugated antibody by hydrophobic interaction chromatography (HIC) HPLC, non-proteinaceous materials by RP HPLC and in vitro cytotoxicity using a SEZ6 expressing cell line.

Molecule: O=C1[O][Pt]2([NH][C@@H]3CCCC[C@H]3[NH]2)[O]C1=O [oxaliplatin]
- IC50 [1]: 2000 to 2500 nM
- resistance to oxaliplatin, LU124OXAHIp3 [2]: Resistance was maintained
- IC50 [3]: 36 nM

B1: hSC17.17-ADC1 (conjugate)
VL: EIVLTQSPATLSLSPGERATLSCSASSSVSYMHWYQQKPGQAPRLLIYDTSKLPSGIPARFSGSGSGTDFTLTISSLEPEDFAVYYCQQWSSTPPTFGQGTKLEIK
VH: QVQLVQSGAEVKKPGASVKVSCKASGYTFTDYNMHWVRQAPGQGLEWMGEINPNIGGTGYNQKFKGRVTMTRDTSISTAYMELSRLRSDDTAVYYCARTYSYYSYEFAYWGQGTLVTVSS
- tumor volume, LU117 [4]: reduction
- tumor volume, LU64 [5]: elimination
- tumor volume, LU80 [6]: reduction
- IC50 [7]: 11 nM
